The values below come from US20170368132A1 (published 2017).

The target of one assay is T1, Rad51 (F86E; A89E) (human, UniProt Q06609 1-339).
T1 construct: Human RAD51 mutant tested by Y2H; also called human RAD51 F86E A89E
T1 chain: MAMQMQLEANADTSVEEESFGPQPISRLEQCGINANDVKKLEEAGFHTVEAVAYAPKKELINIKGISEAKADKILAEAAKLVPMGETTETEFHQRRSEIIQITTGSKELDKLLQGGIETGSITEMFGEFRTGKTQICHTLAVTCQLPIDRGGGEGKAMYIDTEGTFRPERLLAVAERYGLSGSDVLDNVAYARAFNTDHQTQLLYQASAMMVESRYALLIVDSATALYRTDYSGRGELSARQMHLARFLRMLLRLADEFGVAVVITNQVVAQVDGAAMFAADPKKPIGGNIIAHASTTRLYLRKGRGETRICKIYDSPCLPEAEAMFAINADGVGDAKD
The experiment in a line: yeast two-hybrid, human RAD51 mutant. Here is the method:
The ability of peptides to bind human RAD51 with various mutations was then tested by Y2H assay. […] While mutations affecting BRCA2 binding had no effect on peptide binding, mutations that affected RAD51-AP1 binding did disrupt peptide binding. As these mutations were at residues 202, 205, and 206, they were consistent with the previous fusion data showing binding somewhere in the 190-218 region, and indicated the peptide SEQ ID NO.:5 contacts at least residues 202, 205, and 206 of RAD51.

Another assay deals with T2, S. cerevisiae Rad51 (S. cerevisiae, UniProt P25454 1-400, limits assumed).
T2 construct: Y2H fusion in yeast
T2 sequence (looked up): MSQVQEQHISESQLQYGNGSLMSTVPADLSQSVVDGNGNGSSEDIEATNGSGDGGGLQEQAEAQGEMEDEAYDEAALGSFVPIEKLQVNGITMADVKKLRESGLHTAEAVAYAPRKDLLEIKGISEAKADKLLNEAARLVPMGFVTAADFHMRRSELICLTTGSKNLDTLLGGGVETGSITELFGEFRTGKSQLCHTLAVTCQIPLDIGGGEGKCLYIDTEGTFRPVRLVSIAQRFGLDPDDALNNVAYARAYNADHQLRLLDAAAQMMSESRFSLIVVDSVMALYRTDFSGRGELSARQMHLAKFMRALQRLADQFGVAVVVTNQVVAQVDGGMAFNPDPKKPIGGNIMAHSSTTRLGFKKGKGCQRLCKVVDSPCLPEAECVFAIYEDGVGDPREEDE
The experiment in a line: yeast two-hybrid, growth on -ADE -HIS. Here is the method: (§1) RAD51-binding peptides were tested for ability to bind RAD51 of several different species using a “conventional” Y2H assay, where interaction between the two-hybrid pair drove expression of ADE2 and HIS genes. In this Y2H assay the two-hybrid pair was RAD51 and the compound 5 peptide sequence (SEQ ID NO.:5), so that cells having the interaction would survive (+) and cells not having the interaction would die (−) on selective media (−ADE, −HIS).

Another assay has as its target T3, H. sapiens Rad51 (H. sapiens, UniProt Q06609 1-339).
T3 construct: Expressed in yeast as a two-hybrid fusion; also called human RAD51
T3 sequence: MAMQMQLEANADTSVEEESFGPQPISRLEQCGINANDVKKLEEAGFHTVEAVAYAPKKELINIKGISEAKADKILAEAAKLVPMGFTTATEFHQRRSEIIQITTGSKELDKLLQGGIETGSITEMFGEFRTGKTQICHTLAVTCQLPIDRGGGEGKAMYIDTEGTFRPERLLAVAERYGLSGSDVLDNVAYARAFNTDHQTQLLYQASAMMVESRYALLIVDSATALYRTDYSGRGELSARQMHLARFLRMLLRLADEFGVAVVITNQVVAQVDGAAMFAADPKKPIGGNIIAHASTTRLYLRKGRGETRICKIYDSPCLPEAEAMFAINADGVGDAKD
Briefly: yeast two-hybrid, growth on -ADE -HIS. On the procedure: as §1

The target of a further assay is T4, G. gallus Rad51 (G. gallus, UniProt P37383 1-339, limits assumed).
T4 construct: Y2H fusion in yeast
T4 sequence (looked up): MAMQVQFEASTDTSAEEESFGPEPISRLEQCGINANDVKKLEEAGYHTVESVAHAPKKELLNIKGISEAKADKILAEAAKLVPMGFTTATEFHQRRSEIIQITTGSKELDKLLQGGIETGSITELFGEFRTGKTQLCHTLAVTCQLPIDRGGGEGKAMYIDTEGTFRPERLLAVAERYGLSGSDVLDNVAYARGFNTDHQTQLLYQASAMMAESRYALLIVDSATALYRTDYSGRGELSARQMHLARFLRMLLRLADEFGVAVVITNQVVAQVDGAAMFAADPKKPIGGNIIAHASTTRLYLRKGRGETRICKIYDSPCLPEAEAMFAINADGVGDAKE
Briefly: yeast two-hybrid, growth on -ADE -HIS. On the procedure: as §1

A further assay addresses T5, S. pombe Rad51 (S. pombe, UniProt P36601 1-365, limits assumed).
T5 construct: Y2H fusion in yeast
T5 sequence (looked up): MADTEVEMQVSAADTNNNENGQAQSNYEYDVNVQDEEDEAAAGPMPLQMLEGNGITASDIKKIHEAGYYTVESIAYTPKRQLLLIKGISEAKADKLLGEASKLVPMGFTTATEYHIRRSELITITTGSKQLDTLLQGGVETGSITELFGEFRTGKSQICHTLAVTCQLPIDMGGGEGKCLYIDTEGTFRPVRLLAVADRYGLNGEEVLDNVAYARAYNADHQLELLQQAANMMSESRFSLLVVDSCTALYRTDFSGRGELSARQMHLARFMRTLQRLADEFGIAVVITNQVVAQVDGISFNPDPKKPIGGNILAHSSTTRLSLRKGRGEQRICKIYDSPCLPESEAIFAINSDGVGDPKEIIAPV
The experiment in a line: yeast two-hybrid, growth on -ADE -HIS. Here is the method: as §1

In assay [1] the target is T6, S. cerevisiae Rad51 (1-278) + H. sapiens Rad51 (218-339) (S. cerevisiae; H. sapiens, UniProt P25454 1-278).
T6 construct: range 1-278; Y2H fusion in yeast; also called cerevisiae-sapiens hybrid construct of RAD51
T6 sequence: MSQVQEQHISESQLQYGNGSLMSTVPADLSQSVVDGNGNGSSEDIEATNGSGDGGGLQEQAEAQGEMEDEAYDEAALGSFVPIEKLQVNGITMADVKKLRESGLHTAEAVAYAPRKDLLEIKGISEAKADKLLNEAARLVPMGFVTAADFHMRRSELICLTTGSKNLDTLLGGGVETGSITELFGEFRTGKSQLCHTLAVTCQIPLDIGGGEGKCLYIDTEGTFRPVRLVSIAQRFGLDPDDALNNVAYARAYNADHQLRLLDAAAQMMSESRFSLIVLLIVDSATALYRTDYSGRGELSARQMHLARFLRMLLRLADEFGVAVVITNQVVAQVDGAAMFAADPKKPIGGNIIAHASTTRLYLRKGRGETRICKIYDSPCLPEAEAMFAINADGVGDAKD
Briefly: yeast two-hybrid, RAD51 hybrid construct.

As for KRRRRRRRKRLGVRLRVSRML [compound 5 peptide sequence (SEQ ID NO.:5)], the binding result is “binds” with Rad51 (F86E; A89E); “no binding” with S. cerevisiae Rad51; “binds” with H. sapiens Rad51; “binds” with G. gallus Rad51; “binds” in the assay with S. pombe Rad51; “no binding” in assay [1].
